From patent US20240277770A1, “SYSTEMS AND METHODS TO IDENTIFY MHC-ASSOCIATED ANTIGENS FOR THERAPEUTIC INTERVENTION” (GENENTECH, INC., priority 2021, published 2024)

Target: recombinant conditional HLA-A*02:01 complex (human)
Assay: TR-FRET peptide exchange / HLA complex stability assay
Conditions: remark: other sources report otherwise

RZ-score: 3.9
B1: … (peptide)
peptide: HMTEVVRHC
modifications: here or on the partner: biotinylated (BirA)
